Test results from patent publication US20240317859A1 (FOUNDATION FOR BIOMEDICAL RESEARCH AND INNOVATION AT KOBE, published 2024).
Where two headings read alike, the source gives them in different places.

Columns and labels:
[1] = biological target: T1, human PD-1 (wild-type), expressed on cells (human, UniProt Q15116 25-288); test: cell-based or functional assay
[2] = biological target: Human PD-1/PDCD1 Protein (PD-1) (human, UniProt Q15116 25-167, limits assumed); test: SPR, Biacore 8K; PD-1 captured by anti-His antibody, antibody in flow
Sequence of Human PD-1/PDCD1 Protein (PD-1) (Q15116 25-167 limits assumed): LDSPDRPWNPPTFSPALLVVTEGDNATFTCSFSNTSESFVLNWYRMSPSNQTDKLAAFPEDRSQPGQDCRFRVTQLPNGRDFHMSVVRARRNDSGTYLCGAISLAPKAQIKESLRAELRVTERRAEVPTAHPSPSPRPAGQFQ
Procedure: The binding affinity of each antibody to human PD-1 was measured with Biacore 8K (Cytiva). Briefly, anti-His Tag antibody was immobilized by amine coupling using Amine Coupling Kit and His Capture Kit, onto 8 channels of a sensor chip (provided with 16 flow cells; one channel consisting of two flow cells) which had carboxymethyl dextran immobilized on a gold film. The immobilization was performed by feeding an activation solution (NHS and EDC mixed in equal amounts) at a flow rate of 10 μl/min for 7 minutes, an immobilization solution at a flow rate of 5 μl/min for 7 minutes, and 1 M ethanolamine hydrochloride-NaOH (pH 8.5) at a flow rate of 10 μl/min for 7 minutes. The buffer used at the time of immobilization was 1×HBS-EP+ Buffer. After the immobilization and before applying a sample, Human PD-1/PDCD1 Protein (PD-1) adjusted to 1 μg/ml with 1×HBS-EP+ Buffer was fed to one of the two flow cells of each channel in an amount of 20 μl at a flow rate of 10 μl/min to thereby capture PD-1 on the sensor chip. As regards the other flow cell, 1×HBS-EP+ Buffer was fed in the same manner to prepare a control flow cell. Each antibody was adjusted to 16 nM with 1×HBS-EP+ Buffer, and then subjected to 2-fold 7-step serial dilution using 1×HBS-EP+ Buffer. The resultant sample solution (30 μl) was fed to each flow cell at a flow rate of 10 μl/min and the response was measured. After subtracting the response of control flow cell from the response of the flow cell which was allowed to capture the ligand, KD value was calculated by curve fitting using Biacore 8K Evaluation Software.

[3] = biological target: T1, human PD-1 (wild-type), expressed on …; test: cell-based or functional assay; remark: listed apart in the source

T1 sequence (Q15116 25-288 limits assumed): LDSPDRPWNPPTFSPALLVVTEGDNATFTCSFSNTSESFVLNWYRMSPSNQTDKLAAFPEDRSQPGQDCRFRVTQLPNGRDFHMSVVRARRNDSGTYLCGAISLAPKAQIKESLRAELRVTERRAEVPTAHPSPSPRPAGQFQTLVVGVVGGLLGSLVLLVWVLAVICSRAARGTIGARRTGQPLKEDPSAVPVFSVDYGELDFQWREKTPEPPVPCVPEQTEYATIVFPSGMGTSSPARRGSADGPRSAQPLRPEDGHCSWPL

| Cell-cell contact assay [1] [ng/mL] | Kd [2] [nM] | Cell-cell contact assay [3] [ng/mL] | Binder |
| --- | --- | --- | --- |
| 19 | < 0.0179 |  | HM242-C1 (antibody, human IgG1, V domains shown, also called humanized HM242, VH ver.C / VL ver.1) VH: QVQLVQSGPEVKKPGASVKVVCKASGYTFTSYYIQWVKQRPGQGLEWIGWIYPGDGTTKYNEKFKGRVTMTIDKSTRTAYMELRSLRSDDTAVYYCASYYGSYFDYWGQGTLVTVSS VL: DIQMTQTTSSLSASVGDRVTITCRASQDISNYLNWYQQKPDGTVTLLIYYTSKLHSGVPSRFSGSGSGTDYTLTISSLEQKDFATYYCQQSSTLPFTFGQGTKLEIK |
| 18.1 | < 0.0211 |  | HM242-C2 (antibody, human IgG1, V domains shown, also called humanized HM242, VH ver.C / VL ver.2) VH: QVQLVQSGPEVKKPGASVKVVCKASGYTFTSYYIQWVKQRPGQGLEWIGWIYPGDGTTKYNEKFKGRVTMTIDKSTRTAYMELRSLRSDDTAVYYCASYYGSYFDYWGQGTLVTVSS VL: DIQMTQSPSSLSASVGDRVTITCRASQDISNYLNWYQQKPDGTVTLLIYYTSKLHSGVPSRFSGSGSGTDYTLTISSLQPEDFATYYCQQSSTLPFTFGQGTKLEIK |
|  | 0.232 | 102 | HM297-G5 (antibody, human IgG1, V domains shown, also called humanized HM297, VH ver.G / VL ver.5) VH: QVQLVQSGPEVKKPGASVKIPCKASGYTFTDYNVDWVRQVPGQGLEWIGDIDPNNGGTIYNQKFKDKATLTVDKSTRTAYMELRSLRSDDTAVYYCARWRGAMDYWGQGTLVTVSS VL: DIQMTQSPSSLSASVGDRVTITCRASQDIDNYLKWYQQKPDGTVKLLIYDTSRLHSGVPSRFSGSGSGTDYTLTISSLKQEDFATYYCQQGYTLPWTFGQGTKLEIK |
|  | 0.563 | 96.4 | humanized HM297-H5-IgG1-K322A (antibody, V domains shown) VH: QVQLVQSGPEVKKPGASVKIPCKASGYTFTDYNVDWVRQVPGQGLEWMGDIDPNNGGTIYNQKFKDRVTMTVDKSTRTAYMELRSLRSDDTAVYYCARWRGAMDYWGQGTLVTVSS VL: DIQMTQSPSSLSASVGDRVTITCRASQDIDNYLKWYQQKPDGTVKLLIYDTSRLHSGVPSRFSGSGSGTDYTLTISSLKQEDFATYYCQQGYTLPWTFGQGTKLEIKR |
|  | 3.48 | 137 | HM297-I6 (antibody, human IgG1, V domains shown, also called humanized HM297, VH ver.I / VL ver.6) VH: QVQLVQSGPEVKKPGASVKVVCKASGYTFTDYNVDWVRQVPGQGLEWMGDIDPNNGGTIYNQKFKDRVTMTVDTSTRTAYMELRSLRSDDTAVYYCARWRGAMDYWGQGTLVTVSS VL: DIQMTQSPSSLSASVGDRVTITCRASQDIDNYLKWYQQKPGKAPKLLIYDTSRLHSGVPSRFSGSGSGTDYTLTISSLQPEDFATYYCQQGYTLPWTFGQGTKLEIK |
|  | 4.83 | 150 | HM297-F6 (antibody, human IgG1, V domains shown, also called humanized HM297, VH ver.F / VL ver.6) VH: QVQLVQSGPEVKKPGASVKIPCKASGYTFTDYNVDWVRQSHGKSLEWIGDIDPNNGGTIYNQKFKDRVTMTVDKSTRTAYMELRSLRSDDTAVYYCARWRGAMDYWGQGTLVTVSS VL: DIQMTQSPSSLSASVGDRVTITCRASQDIDNYLKWYQQKPGKAPKLLIYDTSRLHSGVPSRFSGSGSGTDYTLTISSLQPEDFATYYCQQGYTLPWTFGQGTKLEIK |
|  | 4.84 | 65.6 | HM297-I4 (antibody, human IgG1, V domains shown, also called humanized HM297, VH ver.I / VL ver.4) VH: QVQLVQSGPEVKKPGASVKVVCKASGYTFTDYNVDWVRQVPGQGLEWMGDIDPNNGGTIYNQKFKDRVTMTVDTSTRTAYMELRSLRSDDTAVYYCARWRGAMDYWGQGTLVTVSS VL: DIQMTQTTSSLSASVGDRVTITCRASQDIDNYLKWYQQKPDGTVKLLIYDTSRLHSGVPSRFSGSGSGTDYTLTISSLKQEDFATYYCQQGYTLPWTFGQGTKLEIK |
|  | 1.86 | 141 | HM297-H6 (antibody, human IgG1, V domains shown, also called humanized HM297, VH ver.H / VL ver.6) VH: QVQLVQSGPEVKKPGASVKIPCKASGYTFTDYNVDWVRQVPGQGLEWMGDIDPNNGGTIYNQKFKDRVTMTVDKSTRTAYMELRSLRSDDTAVYYCARWRGAMDYWGQGTLVTVSS VL: DIQMTQSPSSLSASVGDRVTITCRASQDIDNYLKWYQQKPGKAPKLLIYDTSRLHSGVPSRFSGSGSGTDYTLTISSLQPEDFATYYCQQGYTLPWTFGQGTKLEIK |
|  | 0.129 | 100 | HM297-E4 (antibody, human IgG1, V domains shown, also called humanized HM297, VH ver.E / VL ver.4) VH: QVQLVQSGPELVKPGASVKIPCKASGYTFTDYNVDWVRQSHGKSLEWIGDIDPNNGGTIYNQKFKDKATLTVDKSTRTAYMELRSLRSDDTAVYYCARWRGAMDYWGQGTLVTVSS VL: DIQMTQTTSSLSASVGDRVTITCRASQDIDNYLKWYQQKPDGTVKLLIYDTSRLHSGVPSRFSGSGSGTDYTLTISSLKQEDFATYYCQQGYTLPWTFGQGTKLEIK |
|  | 1.89 | 59.7 | HM297-G6 (antibody, human IgG1, V domains shown, also called humanized HM297, VH ver.G / VL ver.6) VH: QVQLVQSGPEVKKPGASVKIPCKASGYTFTDYNVDWVRQVPGQGLEWIGDIDPNNGGTIYNQKFKDKATLTVDKSTRTAYMELRSLRSDDTAVYYCARWRGAMDYWGQGTLVTVSS VL: DIQMTQSPSSLSASVGDRVTITCRASQDIDNYLKWYQQKPGKAPKLLIYDTSRLHSGVPSRFSGSGSGTDYTLTISSLQPEDFATYYCQQGYTLPWTFGQGTKLEIK |
|  | 2.2 | 94.9 | HM297-I5 (antibody, human IgG1, V domains shown, also called humanized HM297, VH ver.I / VL ver.5) VH: QVQLVQSGPEVKKPGASVKVVCKASGYTFTDYNVDWVRQVPGQGLEWMGDIDPNNGGTIYNQKFKDRVTMTVDTSTRTAYMELRSLRSDDTAVYYCARWRGAMDYWGQGTLVTVSS VL: DIQMTQSPSSLSASVGDRVTITCRASQDIDNYLKWYQQKPDGTVKLLIYDTSRLHSGVPSRFSGSGSGTDYTLTISSLKQEDFATYYCQQGYTLPWTFGQGTKLEIK |
|  | 0.451 | 55.4 | HM297-G4 (antibody, human IgG1, V domains shown, also called humanized HM297, VH ver.G / VL ver.4) VH: QVQLVQSGPEVKKPGASVKIPCKASGYTFTDYNVDWVRQVPGQGLEWIGDIDPNNGGTIYNQKFKDKATLTVDKSTRTAYMELRSLRSDDTAVYYCARWRGAMDYWGQGTLVTVSS VL: DIQMTQTTSSLSASVGDRVTITCRASQDIDNYLKWYQQKPDGTVKLLIYDTSRLHSGVPSRFSGSGSGTDYTLTISSLKQEDFATYYCQQGYTLPWTFGQGTKLEIK |
|  | 24.1 | 92.3 | HM297-F4 (antibody, human IgG1, V domains shown, also called humanized HM297, VH ver.F / VL ver.4) VH: QVQLVQSGPEVKKPGASVKIPCKASGYTFTDYNVDWVRQSHGKSLEWIGDIDPNNGGTIYNQKFKDRVTMTVDKSTRTAYMELRSLRSDDTAVYYCARWRGAMDYWGQGTLVTVSS VL: DIQMTQTTSSLSASVGDRVTITCRASQDIDNYLKWYQQKPDGTVKLLIYDTSRLHSGVPSRFSGSGSGTDYTLTISSLKQEDFATYYCQQGYTLPWTFGQGTKLEIK |
|  | 12.6 | 65.4 | HM297-E6 (antibody, human IgG1, V domains shown, also called humanized HM297, VH ver.E / VL ver.6) VH: QVQLVQSGPELVKPGASVKIPCKASGYTFTDYNVDWVRQSHGKSLEWIGDIDPNNGGTIYNQKFKDKATLTVDKSTRTAYMELRSLRSDDTAVYYCARWRGAMDYWGQGTLVTVSS VL: DIQMTQSPSSLSASVGDRVTITCRASQDIDNYLKWYQQKPGKAPKLLIYDTSRLHSGVPSRFSGSGSGTDYTLTISSLQPEDFATYYCQQGYTLPWTFGQGTKLEIK |
|  | 0.221 | 185 | HM297-H4 (antibody, human IgG1, V domains shown, also called humanized HM297, VH ver.H / VL ver.4) VH: QVQLVQSGPEVKKPGASVKIPCKASGYTFTDYNVDWVRQVPGQGLEWMGDIDPNNGGTIYNQKFKDRVTMTVDKSTRTAYMELRSLRSDDTAVYYCARWRGAMDYWGQGTLVTVSS VL: DIQMTQTTSSLSASVGDRVTITCRASQDIDNYLKWYQQKPDGTVKLLIYDTSRLHSGVPSRFSGSGSGTDYTLTISSLKQEDFATYYCQQGYTLPWTFGQGTKLEIK |
|  | 2.35 | 98.9 | HM297-F5 (antibody, human IgG1, V domains shown, also called humanized HM297, VH ver.F / VL ver.5) VH: QVQLVQSGPEVKKPGASVKIPCKASGYTFTDYNVDWVRQSHGKSLEWIGDIDPNNGGTIYNQKFKDRVTMTVDKSTRTAYMELRSLRSDDTAVYYCARWRGAMDYWGQGTLVTVSS VL: DIQMTQSPSSLSASVGDRVTITCRASQDIDNYLKWYQQKPDGTVKLLIYDTSRLHSGVPSRFSGSGSGTDYTLTISSLKQEDFATYYCQQGYTLPWTFGQGTKLEIK |
|  | 50.2 | 78.6 | HM297-E5 (antibody, human IgG1, V domains shown, also called humanized HM297, VH ver.E / VL ver.5) VH: QVQLVQSGPELVKPGASVKIPCKASGYTFTDYNVDWVRQSHGKSLEWIGDIDPNNGGTIYNQKFKDKATLTVDKSTRTAYMELRSLRSDDTAVYYCARWRGAMDYWGQGTLVTVSS VL: DIQMTQSPSSLSASVGDRVTITCRASQDIDNYLKWYQQKPDGTVKLLIYDTSRLHSGVPSRFSGSGSGTDYTLTISSLKQEDFATYYCQQGYTLPWTFGQGTKLEIK |
|  | 0.0493 | 78.3 | chimeric HM297-IgG1-K322A (antibody, Mouse Fab region with the Fc region of human IgG1-K322A) heavy: not shown light: DVQMTQTTSSLSASLGDRVTISCRASQDIDNYLKWYQQKPDGTVKLLIYDTSRLHSGVPSRFSGSGSGTDYSLTISNLKQEDIATYFCQQGYTLPWTFGGGTRLEIKRTVAAPSVFIFPPSDEQLKSGTASVVCLLNNFYPREAKVQWKVDNALQSGNSQESVTEQDSKDSTYSLSSTLTLSKADYEKHKVYACEVTHQGLSSPVTKSFNRGEC |
